In FireProtDB (doi:10.1002/pro.5560041207):

Settings: Cereibacter sphaeroides, pH 7.4, 23 °C, Urea, Fluorescence, whole UniProt chain shown

B1: Thioredoxin wild type, P08058 (protein)
chain: MSTVPVTDATFDTEVRKSDVPVVVDFWAEWCGPCRQIGPALEELSKEYAGKVKIVKVNVDENPESPAMLGVRGIPALFLFKNGQVVSNKVGAAPKAALATWIASAL
Potassium phosphate 20 mM
  unfolding free energy: 8.2 kcal/mol
Potassium phosphate 20mM
  unfolding free energy: 8.13 kcal/mol
